According to PMC8802628, “Selective activation of PFKL suppresses the phagocytic oxidative burst” (Cell, 2021):
Where a chain is given by its changes, count along the chain named. Names may count otherwise. “And” between values parts separate entries of the source, which are not always exact repeats. Equal values may be shown once.

Assays:
PMNs [1] = assay: ROS detection assay (ROS-Glo) in neutrophils; assay type: cell-based, human; details: over 2 h
Experimental: ROS were measured using the ROS-Glo bioluminescent assay (Promega) for the direct detection of H2O2. Briefly, neutrophils (2 × 10^4) were plated in white 96-well plates (Greiner) in high glucose DMEM medium. Cells were cultured with DMSO vehicle, 0.5 μM NA-11, 5 μM LDC7559, 100 μM apocynin, or 200 μM thionicotinamide for 30 min, and then stimulated with 50 nM PMA or treated with 10 μg/mL zymosan beads, pre-opsonized in 20% serum for 30 min. Luminescence, after the addition of H2O2 substrate solution of 20 min, and then ROS-Glo detection solution for 20 min, was recorded on a plate reader (Envision).

E. coli = assay: Phagocytosis assay: E. coli C.F.U. recovered from PMNs; assay type: cell-based, human; details: neutrophils pretreated 30 min
Experimental: Neutrophils (1 × 10^6) were cultured in 6-well tissue in RPMI medium containing DMSO vehicle, 0.5 μM NA-11, 0.5 μM NA-4, 100 μM Apocynin or 100 μM thionicotinamide (TN) for 30 min. E. coli grown in LB broth overnight (2 mL) were opsonized with human serum (1 mL pooled from three donors) for 1 h at room temperature. Opsonized bacteria were washed with PBS, resuspended in LB broth to an OD600of 0.1 and then added to cultured neutrophils at an MOI of 1 for 30 min. Cells were washed with medium three times and then cultured with 300 μg/mL gentamicin for 2 h to kill any extracellular bacteria. Cells were then washed again, twice with medium and once with PBS. To release phagocytosed bacteria, neutrophils were lysed in 0.05% saponin in PBS. Lysates were passed through a 25’ gauge needed several times and the number of viable phagocytosed bacteria was determined by colony counting.

PMNs [2] = assay: Phagocytosis of zymosan particles by PMNs; assay type: cell-based, human; details: neutrophils, zymosan 2 h
Experimental: Figure S7. NA-11 activates PFKL to prevent the oxidative burst and impair neutrophil defenses, related to Figures 4 and 6
(A) PFK1 activity in PMN lysates. Cells were pretreated with 0.5 mM NA-11, 5 mM LDC7559, 100 mM apocynin, 200 mM thionicotinamid e (TN), 1 mM MEK inhibitor U0126, or DMSO vehicle for 30 min, or 1 mM proteasome inhibitor bortezomib for 1 h, and then activated with 50 nM PMA for 30 min where indicated. Bars represent the mean ± s.d. of cells from 3 donors. (B) NADH:NAD+ ratio in PMA-activated PMNs. Cells were pretreated with 0.5 mM NA-11 or DMSO vehicle for 30 min, and then activated with 50 nM PMA for 30 min. Data are the mean ± s.d. of cells from 3 donors. (C) Immunolabeling of citrullinated histone H3 (magenta) and myeloperoxidase (red) in PMNs pretreated with 0.5 mM NA-11 or DMSO vehicle for 30 min and then stimulated for 4 h with 50 nM PMA, 10 mg/mL extracellular LPS, 0.5 mg/mL cholesterol crystals, or 25 mM nigericin. Chromatin is stained green. Scale bar, […]. Results are representative of 3 independent experiments.
(D) Fluorescence micrographs of PMNs pretreated with 0.5 mM NA-11, 200 mM thionicotinamide (TN), 0.5 mM NA-4, or DMSO vehicle for 30 min, and then incubated with serum-opsonized Texas Red-conjugated zymosan particles (10 mg/mL) for 2 h. […]

[3] = substrate: O=C(CO)[C@@H](O)[C@H](O)[C@H](O)COP(=O)(O)O; assay: Recombinant PFKL activity assay (relief of ATP inhibition); assay type: biochemical, human; details: other: PFKL wild type, pH 7.5, 225 μM ATP, 25.0 °C
Excerpt: (§1) Recombinant N-terminal His-tagged human PFKL (NP_002617), PFKM (NP_000280), and PFKP (NM_002627.4) were generated as described ([Webb et al., 2015], [2017]). Point mutants of PFK1 were generated using the QuikChange Lightning kit (Aligent).
(§2) His-tagged PFK1 was expressed and purified as described with slight modifications ([Webb et al., 2015], [2017]). Briefly, baculovirus was generated using the Bac-to-Bac Expression system (Invitrogen). PFK1 was expressed in 2-5 × 10^6 sf9 cells at a multiplicity of infection of two for 48 h. […] Protein was quantified using a Bradford Protein Assay kit (ThermoFisher Scientific), and aliquotes frozen in liquid nitrogen for storage at −80°C.
(§3) PFK1 activity was determined using the rate of FBP production via an auxiliary enzyme assay adapted to a 96-well format ([Brüser et al., 2012]; [Webb et al., 2015]). […] For assays containing FBP, the rate of ADP production was determined using the auxiliary enzymes pyruvate kinase (PK) and lactate dehydrogenase (LDH) (MilliporeSigma) in a buffer containing 250 μM phosphoenolpyruvic acid, […] NADH, 50 mM HEPES pH 7.5, 100 mM KCl, 1 mM DTT, and effector concentrations as described in the text. […] Absorbance at 340 nm was measured using a Varioskan LUX Multimode microplate reader (ThermoFisher). […]

[4] = molecular target: the molecule itself; assay: cryo-EM structure; 9 uM purified PFKL with 1 mM ATP, 2 mM F6P and 50 uM NA-11 in 20 mM HEPES pH 7.5, 1 mM DTT, 500 uM ammonium sulfate, 5% glycerol, 100 uM EDTA; refinement focused on a single, masked tetramer
[5] = substrate: O=C(CO)[C@@H](O)[C@H](O)[C@H](O)COP(=O)(O)O; assay: Recombinant PFKL−hook activity assay; assay type: biochemical, human; details: other: PFKL−hook, pH 7.5, 225 μM ATP, 25.0 °C
Excerpt: as §1, §2, §3

[6] = substrate: O=C(CO)[C@@H](O)[C@H](O)[C@H](O)COP(=O)(O)O; assay: Recombinant PFKL3Mut activity assay; assay type: biochemical, human; details: other: PFKL3Mut, pH 7.5, 225 μM ATP, 25.0 °C
Excerpt: as §1, §2, §3

[7] = substrate: O=C(CO)[C@@H](O)[C@H](O)[C@H](O)COP(=O)(O)O; assay: Recombinant PFKL−pocket activity assay; assay type: biochemical, human; details: other: PFKL−pocket, pH 7.5, 225 μM ATP, 25.0 °C
Excerpt: as §1, §2, §3

[8] = substrate: O=C(CO)[C@@H](O)[C@H](O)[C@H](O)COP(=O)(O)O; assay: Recombinant PFKM activity assay; assay type: biochemical, human; details: other: PFKM wild type, pH 7.0, 250 μM ATP, 25.0 °C
Excerpt: as §1, §2, §3

[9] = substrate: O=C(CO)[C@@H](O)[C@H](O)[C@H](O)COP(=O)(O)O; assay: Recombinant PFKM+pocket activity assay; assay type: biochemical, human; details: other: PFKM+pocket, pH 7.0, 250 μM ATP, 25.0 °C
Excerpt: as §1, §2, §3

Question: With `NC(=S)c1cccnc1` [TN, thionicotinamide, reference compound] as the molecule, how does the “ROS production during phagocytosis of opsonized zymosan” value (PMNs [1]) read?
Answer: kept ROS production at basal levels

Question: And the “killing of phagocytosed bacteria (bacterial colonies recovered)” value (E. coli)?
Answer: less efficient killers of phagocytosed bacteria

Question: And the “phagocytosis (intracellular zymosan particles)” value (PMNs [2])?
Answer: neither NA-11 nor TN affected phagocytosis

B1: phosphofructokinase-1 liver type (PFKL), human, recombinant N-terminal His-tagged (enzyme)
chain: MAAVDLEKLRASGAGKAIGVLTSGGDAQGMNAAVRAVTRMGIYVGAKVFLIYEGYEGLVEGGENIKQANWLSVSNIIQLGGTIIGSARCKAFTTREGRRAAAYNLVQHGITNLCVIGGDGSLTGANIFRSEWGSLLEELVAEGKISETTARTYSHLNIAGLVGSIDNDFCGTDMTIGTDSALHRIMEVIDAITTTAQSHQRTFVLEVMGRHCGYLALVSALASGADWLFIPEAPPEDGWENFMCERLGETRSRGSRLNIIIIAEGAIDRNGKPISSSYVKDLVVQRLGFDTRVTVLGHVQRGGTPSAFDRILSSKMGMEAVMALLEATPDTPACVVTLSGNQSVRLPLMECVQMTKEVQKAMDDKRFDEATQLRGGSFENNWNIYKLLAHQKPPKEKSNFSLAILNVGAPAAGMNAAVRSAVRTGISHGHTVYVVHDGFEGLAKGQVQEVGWHDVAGWLGRGGSMLGTKRTLPKGQLESIVENIRIYGIHALLVVGGFEAYEGVLQLVEARGRYEELCIVMCVIPATISNNVPGTDFSLGSDTAVNAAMESCDRIKQSASGTKRRVFIVETMGGYCGYLATVTGIAVGADAAYVFEDPFNIHDLKVNVEHMTEKMKTDIQRGLVLRNEKCHDYYTTEFLYNLYSSEGKGVFDCRTNVLGHLQQGGAPTPFDRNYGTKLGVKAMLWLSEKLREVYRKGRVFANAPDSACVIGLKKKAVAFSPVTELKKDTDFEHRMPREQWWLSLRLMLKMLAQYRISMAAYVSGELEHVTRRTLSMDKGF
notes: human phosphofructokinase-1 liver type (PFKL), NP_002617; Homotetramer; In cryo-EM it mostly formed stacked pairs of tetramers; The sample held ATP, F6P and the small molecule NA-11; also called PFK1 liver isoform; wild-type PFKL; source: Sf9 cells (baculovirus, Bac-to-Bac), purified (HisPur cobalt resin, desalting column)
Question: B1 was tested. Which Km [3] did it give?
Answer: 1970 ± 240 µM

Question: What about the “stoichiometry N” value [4] of the same molecule?
Answer: 4 and 8

B2: PFKL(V545L, V582M) (PFKL−hook) (Homo sapiens; V545L/V582M) (protein)
chain: B1 chain with V545L, V582M
notes: made in house; host or cells: Sf9 insect cells (baculovirus)
Question: For B2, which Km [5] is on record?
Answer: 1200 ± 90 µM

B3: PFKL (K315R, V545L, and V582M), PFKL3Mut (Homo sapiens; K315R/V545L/V582M) (protein)
chain: B1 chain with K315R, V545L, V582M
notes: as for B2
Question: How did the Km [6] turn out when B3 was run?
Answer: 570 ± 60 µM

B4: PFKL(K315R) (PFKL−pocket) (Homo sapiens; K315R) (protein)
chain: B1 chain with K315R
notes: as for B2
Question: How did the Km [7] turn out when B4 was run?
Answer: 2060 ± 120 µM

B5: human PFKM (Homo sapiens) (protein)
chain: MTHEEHHAAKTLGIGKAIAVLTSGGDAQGMNAAVRAVVRVGIFTGARVFFVHEGYQGLVDGGDHIKEATWESVSMMLQLGGTVIGSARCKDFREREGRLRAAYNLVKRGITNLCVIGGDGSLTGADTFRSEWSDLLSDLQKAGKITDEEATKSSYLNIVGLVGSIDNDFCGTDMTIGTDSALHRIMEIVDAITTTAQSHQRTFVLEVMGRHCGYLALVTSLSCGADWVFIPECPPDDDWEEHLCRRLSETRTRGSRLNIIIVAEGAIDKNGKPITSEDIKNLVVKRLGYDTRVTVLGHVQRGGTPSAFDRILGSRMGVEAVMALLEGTPDTPACVVSLSGNQAVRLPLMECVQVTKDVTKAMDEKKFDEALKLRGRSFMNNWEVYKLLAHVRPPVSKSGSHTVAVMNVGAPAAGMNAAVRSTVRIGLIQGNRVLVVHDGFEGLAKGQIEEAGWSYVGGWTGQGGSKLGTKRTLPKKSFEQISANITKFNIQGLVIIGGFEAYTGGLELMEGRKQFDELCIPFVVIPATVSNNVPGSDFSVGADTALNTICTTCDRIKQSAAGTKRRVFIIETMGGYCGYLATMAGLAAGADAAYIFEEPFTIRDLQANVEHLVQKMKTTVKRGLVLRNEKCNENYTTDFIFNLYSEEGKGIFDSRKNVLGHMQQGGSPTPFDRNFATKMGAKAMNWMSGKIKESYRNGRIFANTPDSGCVLGMRKRALVFQPVAELKDQTDFEHRIPKEQWWLKLRPILKILAKYEIDLDTSDHAHLEHITRKRSGEAAV
notes: as for B2
Question: For B5, which Km [8] is on record?
Answer: 610 ± 50 µM

B6: PFKM+pocket (R315 to lysine) (Homo sapiens; R315K) (protein)
chain: B5 chain with R315K
notes: as for B2
Question: Which Km [9] does the source give for B6 here?
Answer: 1410 ± 80 µM
